Experimental data published in patent US20190345225A1 (KEROS THERAPEUTICS, published 2019).
Where a chain is given by its changes, count along the chain named.

T1: extracellular ActRIIb (SEQ ID NO: 74) fused to the N-terminus of hFc through a GGG linker (human, UniProt Q13705 20-134)
T1 construct: also called ActRIIb (41-155); wild-type extracellular ActRIIb; not shown: human Fc (hFc)
T1 sequence: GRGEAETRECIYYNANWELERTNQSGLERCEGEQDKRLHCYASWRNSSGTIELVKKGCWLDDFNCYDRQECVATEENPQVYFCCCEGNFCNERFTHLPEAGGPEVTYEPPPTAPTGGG

B1: growth differentiation factor 11 (GDF11) (ligand, UniProt O95390 299-407, looked up)
chain: NLGLDCDEHSSESRCCRYPLTVDFEAFGWDWIIAPKRYKANYCSGQCEYMFMQKYPHTHLVQQANPRGSAGPCCTPTKMSPINMLYFNDKQQIIYGKIPGMVVDRCGCS
B2: BMP-9 (ligand, UniProt Q9UK05 320-429, looked up)
chain: SAGAGSHCQKTSLRVNFEDIGWDSWIIAPKEYEAYECKGGCFFPLADDVTPTKHAIVQTLVHLKFPTKVGKACCVPTKLSPISVLYKDDMGVPTLKYHYEGMSVAECGCR
notes: also called bone morphogenetic protein 9
B3: extracellular ActRIIa (SEQ ID NO: 73) fused to the N-terminus of hFc through a GGG linker (Fc fusion)
chain: AILGRSETQECLFFNANWEKDRTNQTGVEPCYGDKDKRRHCFATWKNISGSIEIVKQGCWLDDINCYDRTDCVEKKDSPEVYFCCCEGNMCNEKFSYFPEMEVTQPTSGGG
notes: also called ActRIIa (19-127); wild-type extracellular ActRIIa; not shown: human Fc (hFc)
B4: extracellular ActRIIa/bΔ9 variant (SEQ ID NO: 58) fused to the N-terminus of hFc through a GGG linker (Fc fusion)
chain: GAILGRSETQECLFYNANWELDRTNQTGVERCEGEKDKRLHCYATWRNISGSIEIVKKGCWLDDFNCYDRTDCVETKENPQVYFCCCEGNMCNEKFSYFPEMEVTQPTSGGG
notes: also called ActRIIA/BΔ9-Fc; not shown: human Fc (hFc)
B5: ActRIIa/b+ (SEQ ID NO: 150) fused to the N-terminus of hFc through a GGG linker (Fc fusion)
chain: B4 chain with D22E, K57A, K77E
notes: also called ActRIIab+ variant; not shown: human Fc (hFc)
B6: ActRIIa/b-delta 9m2 (SEQ ID NO: 38) fused to the N-terminus of hFc through a GGG linker (Fc fusion)
chain: B4 chain with F65I
notes: also called ActRIIa/bΔ9m2 variant; not shown: human Fc (hFc)
B7: ActRIIa/b-delta 9m3 (SEQ ID NO: 41) fused to the N-terminus of hFc through a GGG linker (Fc fusion)
chain: B4 chain with Y43F
notes: also called ActRIIa/bΔ9m3 variant; not shown: human Fc (hFc)
B8: ActRIIa/b-delta 9m4 (SEQ ID NO: 44) fused to the N-terminus of hFc through a GGG linker (Fc fusion)
chain: B4 chain with R31P
notes: also called ActRIIa/bΔ9m4 variant; not shown: human Fc (hFc)
B9: ActRIIa/bmax1 (SEQ ID NO: 70) fused to the N-terminus of hFc through a GGG linker (Fc fusion)
chain: B4 chain with F14Y, D22E, K36Q, K77E
notes: also called ActRIIa/bmax1 variant; not shown: human Fc (hFc)
B10: extracellular ActRIIa/b variant (SEQ ID NO: 69) fused to the N-terminus of hFc through a GGG linker (Fc fusion)
chain: B4 chain with D22E, K77E
notes: also called ActRIIA/B-Fc; not shown: human Fc (hFc)
B11: extracellular ActRIIa/bΔ9 min variant (SEQ ID NO: 6) fused to the N-terminus of hFc through a GGG linker (Fc fusion)
chain: B4 chain with R31P, Y43F, R47K, F65I
notes: not shown: human Fc (hFc)
B12: ActRIIa/bmax2 (SEQ ID NO: 71) fused to the N-terminus of hFc through a GGG linker (Fc fusion)
chain: GAILGRSETQECLFYNANWELERTNQTGVERCEGEKDKRLHCYATWRNISGSIEIVKKGCWLDDFNCYDRTDCVETEENPQVYFCCCEGNMCNEKFSYFPEMEVTQPTSNPGGG
notes: also called ActRIIa/bmax2 variant; not shown: human Fc (hFc)
B13: ActRIIa/bmax3 variant (SEQ ID NO: 72) fused to the N-terminus of hFc through a GGG linker (Fc fusion)
chain: GAILGRSETQECLFYNANWELERTNQTGVERCEGEKDKRLHCYATWRNISGSIEIVKKGCWLDDFNCYDRTDCVETEENPQVYFCCCEGNMCNEKFSYFPEMEVTQPTSNPVTPKGGG
notes: not shown: human Fc (hFc)
B14: Activin A (ligand, UniProt P08476 311-426, looked up)
chain: GLECDGKVNICCKKQFFVSFKDIGWNDWIIAPSGYHANYCEGECPSHIAGTSGSSLSFHSTVINHYRMRGHSPFANLKSCCVPTKLRPMSMLYYDDGQNIIKKDIQNMIVEECGCS
B15: Activin B (ligand, UniProt P09529 293-407, looked up)
chain: GLECDGRTNLCCRQQFFIDFRLIGWNDWIIAPTGYYGNYCEGSCPAYLAGVPGSASSFHTAVVNQYRMRGLNPGTVNSCCIPTKLSTMSMLYFDDEYNIVKRDVPNMIVEECGCA
B16: extracellular ActRIIb variant (SEQ ID NO: 149) fused to the N-terminus of hFc through a GGG linker (Fc fusion)
chain: GRGEAETRECIFYNANWEKDRTNQSGLEPCYGDQDKRRHCFASWKNSSGTIELVKQGCWLDDINCYDRQECVAKKDSPEVYFCCCEGNFCNERFTHLPEAGGPEVTYEPPPTAPTGGG
notes: also called ActRIIb/a variant; ActRIIb/a; not shown: human Fc (hFc)

Biological target: B3
Assay: SPR, Biacore 3000; receptor fusion captured on chip, ligand in solution

Kd [pM] | Binder
81 | B1
25000 | B2

Biological target: B15
Assay: as above

Kd [pM] | Binder
373 | B3
12.3 | B4
282 | B5
104 | B6
72.5 | B7
254 | B8
97 | B9
103 | B10
88 | B11
39 | B12
43 | B13

Biological target: B14
Assay: as above

Kd [pM] | Binder
1000 | B3
213 | B4
242 | B5
170 | B6
71 | B7
375 | B8
232 | B9
542 | B10
310 | B11
135 | B12
89 | B13

Biological target: B2
Assay: as above

Kd [pM] | Binder
10000 | B4
26000 | B5
13000 to 18000 | B6
1200 | B7
14000 to 20000 | B8
5600 | B9
4000 | B10
17000 | B11
5000 | B12
3300 | B13

Biological target: B1
Assay: as above

Kd [pM] | Binder
115 | B4
222 | B6
117 | B7
394 | B8
236 | B9
186 | B10
114 | B11
113 | B12
214 | B13

Biological target: T1, extracellular ActRIIb (SEQ ID NO: 74) …
Assay: as above

Kd [pM] | Binder
63 | B14
23 | B15

Biological target: B15
Assay: SPR, Biacore 3000; receptor fusion captured on the chip by antibody, ligand run in a concentration series

binding result | Binder
no binding | B16

Biological target: B14
Assay: as above

binding result | Binder
no binding | B16

Biological target: B1
Assay: as above

binding result | Binder
no binding | B16
